Test results from patent EP2014310A2 (Dyax Corporation, dated 2009).
Bridge positions count the residues as written; N and C are the ends. Ends that are not written are not given here. I, II: the chains in the order shown.

What was measured:
[1] = biological target: human KDR-Fc fusion (R&D Systems #357-KD-050) (human) (UniProt P35968); assay: SPR, reference D2
[2] = biological target: T1, murine KDR-Fc fusion (R&D Systems #443-KD-050) (murine, UniProt P35918 20-762); assay: BIAcore, KD1 = kd1/ka1, murine KDR-Fc 2700RU
T1 construct: bought; also called recombinant murine KDR-Fc; rmKDR-Fc

[3] = biological target: T1, murine KDR-Fc fusion (R&D Systems …); assay: BIAcore, KD1 = kd1/ka1, murine KDR-Fc 5000RU
[4] = biological target: KDR on human umbilical vein endothelial cells (HUVECs) (human, UniProt P35968 20-1356); assay: cell-based or functional assay
[5] = biological target: T2, KDR on transiently KDR-transfected 293H cells (human, UniProt P35968 20-1356); assay: displacement of 5.5 nM streptavidin-HRP/binding peptide complex from KDR-transfected 293H cells
T2 construct: whole, on cells; also called KDR-expressing cells

[6] = biological target: T2, KDR on transiently KDR-transfected 293H …; assay: displacement of 5.5 nM peptide/streptavidin-HRP complex from KDR-transfected 293H cells
[7] = biological target: T3, human KDR-Fc fusion (R&D Systems #357-KD-050) (human, UniProt P35968 20-764); assay: Biacore steady state, KD1 of double rectangular hyperbola, KDR-Fc 6000RU
T3 construct: bought

[8] = biological target: T3, human KDR-Fc fusion (R&D Systems …); assay: Biacore steady state at the higher immobilization densities
[9] = biological target: T3, human KDR-Fc fusion (R&D Systems …); assay: Biacore steady state, KD1 of double rectangular hyperbola, KDR-Fc 3000RU
[10] = biological target: T3, human KDR-Fc fusion (R&D Systems …); assay: Biacore steady state, KD1 of double rectangular hyperbola, KDR-Fc 1600RU
[11] = biological target: VEGF165 (Peprotech #100-20) (UniProt P15692-4 27-191); assay: fluorescence anisotropy, fluorescein-labeled peptide, VEGF alone
[12] = biological target: T4, KDR/VEGF complex (KDR-Fc mixed or saturated with VEGF) (human, UniProt P35968 20-764; P15692 27-191); assay: fluorescence anisotropy, fluorescein-labeled peptide, KDR-Fc with two fold excess VEGF
T4 construct: anisotropy: two fold molar excess of VEGF mixed with KDR-Fc; Biacore: KDR-Fc chip saturated with VEGF; also called KDR:VEGF165 complex

[13] = biological target: T3, human KDR-Fc fusion (R&D Systems …); assay: fluorescence anisotropy, fluorescein-labeled peptide
[14] = biological target: T1, murine KDR-Fc fusion (R&D Systems …); assay: BIAcore, KD1 = kd1/ka1, fluorescein-labeled peptide, murine KDR-Fc 2700RU
[15] = biological target: T1, murine KDR-Fc fusion (R&D Systems …); assay: BIAcore, KD1 = kd1/ka1, fluorescein-labeled peptide, murine KDR-Fc 5000RU

T1 sequence (P35918 20-762): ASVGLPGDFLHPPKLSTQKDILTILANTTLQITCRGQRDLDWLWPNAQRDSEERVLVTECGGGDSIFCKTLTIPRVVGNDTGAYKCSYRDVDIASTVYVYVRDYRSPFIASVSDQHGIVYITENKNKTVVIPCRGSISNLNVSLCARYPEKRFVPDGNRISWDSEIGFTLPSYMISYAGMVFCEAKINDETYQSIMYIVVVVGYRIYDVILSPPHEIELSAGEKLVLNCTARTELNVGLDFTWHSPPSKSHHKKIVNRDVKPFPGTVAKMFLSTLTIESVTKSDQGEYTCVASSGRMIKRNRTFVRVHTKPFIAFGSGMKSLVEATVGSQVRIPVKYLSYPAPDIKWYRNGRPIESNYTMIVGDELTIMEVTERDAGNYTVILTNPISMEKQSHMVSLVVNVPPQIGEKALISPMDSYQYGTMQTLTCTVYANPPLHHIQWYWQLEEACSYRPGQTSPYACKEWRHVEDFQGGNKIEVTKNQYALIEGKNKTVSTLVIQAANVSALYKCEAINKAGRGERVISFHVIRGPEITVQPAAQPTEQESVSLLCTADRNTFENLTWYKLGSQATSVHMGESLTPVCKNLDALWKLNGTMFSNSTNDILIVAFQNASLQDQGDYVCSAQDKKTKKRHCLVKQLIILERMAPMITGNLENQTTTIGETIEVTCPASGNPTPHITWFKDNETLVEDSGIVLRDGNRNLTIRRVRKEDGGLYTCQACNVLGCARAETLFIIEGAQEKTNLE
T3 sequence (P35968 20-764): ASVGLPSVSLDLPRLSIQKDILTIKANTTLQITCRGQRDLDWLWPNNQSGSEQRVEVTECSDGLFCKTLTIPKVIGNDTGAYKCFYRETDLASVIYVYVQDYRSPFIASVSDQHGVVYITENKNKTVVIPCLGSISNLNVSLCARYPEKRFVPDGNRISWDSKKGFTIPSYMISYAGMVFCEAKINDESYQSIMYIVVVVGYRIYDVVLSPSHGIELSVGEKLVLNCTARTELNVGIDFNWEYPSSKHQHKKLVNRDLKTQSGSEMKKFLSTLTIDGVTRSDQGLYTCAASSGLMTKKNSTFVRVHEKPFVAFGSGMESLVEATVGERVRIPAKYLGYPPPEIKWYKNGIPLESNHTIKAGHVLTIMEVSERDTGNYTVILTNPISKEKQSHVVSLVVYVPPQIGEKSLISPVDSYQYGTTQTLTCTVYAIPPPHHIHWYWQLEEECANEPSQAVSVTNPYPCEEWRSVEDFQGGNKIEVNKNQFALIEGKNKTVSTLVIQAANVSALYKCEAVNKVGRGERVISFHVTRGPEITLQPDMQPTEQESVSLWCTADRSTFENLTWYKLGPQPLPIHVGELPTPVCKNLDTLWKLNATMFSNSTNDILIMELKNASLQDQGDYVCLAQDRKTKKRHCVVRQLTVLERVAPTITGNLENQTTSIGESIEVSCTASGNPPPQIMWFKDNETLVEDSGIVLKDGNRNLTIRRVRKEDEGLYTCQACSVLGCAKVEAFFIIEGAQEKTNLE
T2 sequence (P35968 20-1356): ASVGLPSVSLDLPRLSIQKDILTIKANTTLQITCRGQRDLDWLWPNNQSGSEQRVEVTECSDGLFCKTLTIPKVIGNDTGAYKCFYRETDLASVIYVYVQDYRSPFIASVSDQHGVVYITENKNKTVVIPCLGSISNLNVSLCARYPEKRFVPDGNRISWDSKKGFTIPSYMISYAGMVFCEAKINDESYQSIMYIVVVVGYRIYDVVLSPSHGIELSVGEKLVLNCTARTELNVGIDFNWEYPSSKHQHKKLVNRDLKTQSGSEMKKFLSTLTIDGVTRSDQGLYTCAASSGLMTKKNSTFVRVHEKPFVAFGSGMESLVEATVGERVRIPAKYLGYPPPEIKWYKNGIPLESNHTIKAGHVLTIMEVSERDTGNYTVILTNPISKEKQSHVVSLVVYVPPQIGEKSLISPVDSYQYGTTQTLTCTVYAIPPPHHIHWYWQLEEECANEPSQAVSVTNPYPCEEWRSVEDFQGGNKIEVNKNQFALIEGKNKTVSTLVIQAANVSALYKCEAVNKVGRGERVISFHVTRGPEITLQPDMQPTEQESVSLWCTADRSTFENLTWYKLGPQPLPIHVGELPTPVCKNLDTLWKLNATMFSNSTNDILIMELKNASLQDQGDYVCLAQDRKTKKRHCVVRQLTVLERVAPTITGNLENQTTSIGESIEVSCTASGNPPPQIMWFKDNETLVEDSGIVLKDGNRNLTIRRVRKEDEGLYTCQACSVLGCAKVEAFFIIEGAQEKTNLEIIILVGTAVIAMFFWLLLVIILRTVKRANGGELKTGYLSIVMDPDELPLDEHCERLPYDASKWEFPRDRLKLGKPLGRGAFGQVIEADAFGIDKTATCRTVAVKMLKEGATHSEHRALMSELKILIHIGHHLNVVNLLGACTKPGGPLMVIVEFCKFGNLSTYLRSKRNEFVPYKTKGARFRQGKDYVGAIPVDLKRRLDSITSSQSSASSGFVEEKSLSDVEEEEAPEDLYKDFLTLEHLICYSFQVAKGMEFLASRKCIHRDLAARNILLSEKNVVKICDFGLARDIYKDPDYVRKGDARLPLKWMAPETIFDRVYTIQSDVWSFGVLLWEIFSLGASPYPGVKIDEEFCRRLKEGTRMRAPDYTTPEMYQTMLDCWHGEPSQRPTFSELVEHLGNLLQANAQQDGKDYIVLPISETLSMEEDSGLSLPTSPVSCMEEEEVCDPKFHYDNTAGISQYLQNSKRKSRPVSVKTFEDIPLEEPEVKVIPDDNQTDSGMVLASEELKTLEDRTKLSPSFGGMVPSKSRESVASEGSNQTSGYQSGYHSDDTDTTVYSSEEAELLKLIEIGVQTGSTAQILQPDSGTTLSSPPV
Chain of KDR on human umbilical vein endothelial cells (HUVECs) (P35968 20-1356): as above
Chain of VEGF165 (Peprotech #100-20) (P15692 other isoform, or with tags, fused parts or gaps limits assumed): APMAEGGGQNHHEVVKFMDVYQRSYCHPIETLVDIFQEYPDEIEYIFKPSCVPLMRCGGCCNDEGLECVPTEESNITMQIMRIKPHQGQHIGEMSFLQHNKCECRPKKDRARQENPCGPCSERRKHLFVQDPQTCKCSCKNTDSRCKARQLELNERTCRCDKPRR
T4 sequence (P35968 20-764, chain 1 of 2): as the sequence (P35968 20-764) above
T4 sequence (P15692 other isoform, or with tags, fused parts or gaps, chain 2 of 2): as the sequence (P15692 other isoform, or with tags, fused parts or gaps limits assumed) above
Chain of human KDR-Fc fusion (R&D Systems #357-KD-050) (human) (P35968 20-764): as the sequence (P35968 20-764) above

B1: dimer 1 (D1) (peptide)
peptide 1: Ac-AGPTWCEDDWYYCWLFGTGGGK
peptide 2: Ac-VCWEDSWGGEVCFRYDPGGG
modifications: cysteine pairing not given here; also: heterodimer, C-terminal Lys joined through Biotin-JJK-glutaryl-JJ linker to the second peptide, amide, C-terminus joined to a lysine amide of the linker
Q: How did the fold higher affinity than D2 [1] turn out when B1 was run?
A: Its fold higher affinity than D2 is 10 fold.

Q: What about the Kd [2] of the same binder?
A: Its Kd is 17.5 nM.

Q: What about the Kd [3] of the same binder?
A: The Kd was 16 nM.

Q: What about the “IC50, VEGF-induced phosphorylation of KDR in HUVECs” value [4] of the same binder?
A: Its value is 0.5 to 1 nM.

B2: SEQ ID NO:454, lactam disulfide bridge replacement analog (peptide)
peptide: Ac-AGPTWKEDDWYYEWLFGTGGGK-NH2
modifications: lactam 6-13
Q: For B2, which IC50 [5] is on record?
A: The IC50 was 108 nM.

B3: SEQ ID NO:462, fragment of SEQ ID NO:356 (Asp-Trp-Tyr-Tyr motif with Gly-Gly-Gly-Lys) (peptide)
peptide: DWYYGGGK
Q: B3 was tested. Which IC50 [6] did it give?
A: The IC50 was 850 nM.

B4: D6, peptide heterodimer composed of SEQ ID NO:277 and SEQ ID NO:294 (peptide)
peptide 1: AGPTWCEDDWYYCWLFGTGGGK
peptide 2: GDSRVCWEDSWGGEVCFRYDPGGGK
modifications: linker (positions not given here) via glutaric acid; disulfide I:6-I:13, II:6-II:16 (inferred); also: heterodimer joined by glutaric acid linker, attachment places not given here
notes: made with glutaric acid bis N-hydroxysuccinimidyl ester
Q: What does the source list for B4?
A: Kd [7]: 17 nM; Kd [8]: ~0.6 nM; Kd [9]: 25.5 nM; Kd [10]: 46 nM; IC50, VEGF-induced migration of HUVECs [4]: ~12.5 nM

B5: SEQ ID NO:320 (peptide)
peptide: Ac-AGMPWCVEKDHWDCWWWGTGGGK-NH2
modifications: disulfide 6-14 (inferred); not fully specified; also: C-terminal Lys fluorescein-labeled in some assay forms
Q: For B5, which Kd [11] is on record?
A: Its Kd is 10000 nM.

Q: And the Kd [12]?
A: Its Kd is 140 nM.

Q: Does B5 bind [13]?
A: Result: no binding

B6: SEQ ID NO:277 (peptide)
peptide: Ac-AGPTWCEDDWYYCWLFGTGGGK-NH2
modifications: disulfide 6-13 (inferred); not fully specified
Q: What does the source list for B6?
A: Kd [14]: 36.4 nM; Kd [15]: 33.6 nM
